Article PMC9005727, “ComFC mediates transport and handling of single-stranded DNA during natural transformation” (Nature Communications, 2022)

T1: ComFC (His6-ComFC) (Helicobacter pylori, UniProt O26008)
T1 construct: gene HP_1473; full length, 191 residues, His6 tag kept (six His codons added at 5' end; also called ComFC-6His), pET21a, E. coli BL21(DE3) Gold
T1 sequence (O26008 1-191): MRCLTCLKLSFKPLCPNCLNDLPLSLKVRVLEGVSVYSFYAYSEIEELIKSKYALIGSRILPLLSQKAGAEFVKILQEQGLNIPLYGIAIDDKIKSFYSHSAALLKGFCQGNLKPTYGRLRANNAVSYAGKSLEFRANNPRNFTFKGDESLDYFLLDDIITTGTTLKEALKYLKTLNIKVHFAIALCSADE

T2: ComFC WT (His6-ComFC) (Helicobacter pylori 26695, UniProt O26008 1-191)
T2 sequence: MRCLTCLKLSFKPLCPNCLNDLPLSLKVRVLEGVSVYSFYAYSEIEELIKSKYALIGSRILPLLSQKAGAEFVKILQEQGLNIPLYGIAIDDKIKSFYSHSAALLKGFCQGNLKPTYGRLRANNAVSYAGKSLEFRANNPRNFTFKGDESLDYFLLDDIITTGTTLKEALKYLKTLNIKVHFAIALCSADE

B1: XV2 62-mer ssDNA (ssDNA)
DNA: TGGGTGAACCTGCAGGTGGGCAAAGATGTCCTAGCAATGTAATCGTCAAGCTTTATGCCGTT

How the values were obtained:
[1] = target: T1, ComFC (His6-ComFC); assay: differential scanning fluorimetry (SYPRO Orange); type: binding; conditions: 20 mM Tris-Cl pH 7.5, 200 mM NaCl
[2] = target: T2, ComFC WT (His6-ComFC); assay: EMSA; EMSA: 10 mM Tris-HCl pH 7.5, 50 mM KCl, 1 mM DTT, 0.1 ug/ul BSA, 4 °C, 30 min; native 6% TBE-PAGE; conditions: protein: recombinant; tags: His6 (text: codons added at 5' end, also written ComFC-6His); label: 5'-Cy5
[3] = target: ComFC T165A (Helicobacter pylori 26695, UniProt O26008 1-191, T165A); assay: EMSA; no significant difference from WT; conditions: protein: recombinant; label: 5'-Cy5

Row | Molecule | dTm [1] | apparent K (half saturation) [2] [nM] | binding result [3]
1 | Nc1ncnc2c1ncn2[C@@H]1O[C@H](COP(=O)(O)OP(=O)(O)O)[C@@H](O)[C@H]1O [ADP] | ADP addition also resulted in an increase in melting temperature | – | –
2 | B1 | – | 300 | binds
